Measured values taken from paper doi:10.1101/2021.03.07.432812 (bioRxiv, 2021).
Where no end group is shown, it is not given here. [ ]: non-standard residue; d: D form. Lys(Me3) = C[N+](C)(C)CCCC[C@H](N)C(=O)O; Lys(Me2) = CN(C)CCCC[C@H](N)C(=O)O; Lys(Me) = CNCCCC[C@H](N)C(=O)O

Tests used:
[1] = target: T1, Human Spindlin1 50-262 (human, UniProt Q9Y657 50-262); experiment: ITC
[2] = target: Spindlin1 F141A (human, UniProt Q9Y657 50-262, F141A); experiment: ITC
[3] = target: Spindlin1 W151A (human, UniProt Q9Y657 50-262, W151A); experiment: ITC
[4] = target: Spindlin1 Y177A (human, UniProt Q9Y657 50-262, Y177A); experiment: ITC
[5] = target: the molecule itself; experiment: SEC
[6] = target: T1, Human Spindlin1 50-262; experiment: thermal shift assay
[7] = target: T2, Spindlin1_(50-262) bound to DOCpep3 (human | , UniProt Q9Y657 50-262; Q9BUA3 256-281); experiment: ITC
T2 chain 1: […]
T2 chain 2: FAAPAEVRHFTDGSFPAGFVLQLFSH

[8] = target: Spindlin1_(50-262) bound to DOCpep(1-3) (human | , UniProt Q9Y657 50-262; Q9BUA3 188-281); experiment: ITC
[9] = target: the molecule itself; experiment: native gel or EMSA

Spindlin1 Y177A, sequence (Q9Y657 50-262 Y177A): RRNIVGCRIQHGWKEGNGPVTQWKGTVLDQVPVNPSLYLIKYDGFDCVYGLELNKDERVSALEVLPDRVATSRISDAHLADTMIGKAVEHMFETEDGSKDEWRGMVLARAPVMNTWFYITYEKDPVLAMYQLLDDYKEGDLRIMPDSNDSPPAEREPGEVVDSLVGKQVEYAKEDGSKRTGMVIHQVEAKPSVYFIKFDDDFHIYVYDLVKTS
Spindlin1 F141A, sequence (Q9Y657 50-262 F141A): as the sequence (Q9Y657 50-262 Y177A) above, with F92A, A128Y counted along it
Spindlin1 W151A, sequence (Q9Y657 50-262 W151A): as the sequence (Q9Y657 50-262 Y177A) above, with W102A, A128Y counted along it

B1: SPIN•DOC 184-240, the whole K/R-rich region (domain or fragment)
chain: NPSLPKRSRPRGLRPLELPAVPATEPGNKKPRGQRWKEPPGEEPVRKKRGRPMTKNL
[1]
  Kd: 7.6 µM
  stoichiometry N: 0.5

## VRKKRGRPMTKN (peptide, UniProt Q9BUA3 228-239, looked up) [DOCpep2, SPIN•DOC 228-239 peptide]
[2]
  binding result: binds
[3]
  binding result: binds
[4]
  binding result: binds
[1]
  Kd: 31 µM

## LPKRSRPRG [DOCpep1, SPIN•DOC 187-195 peptide]
[1]
  Kd: 78 µM

## LPARSRPRG [DOCpep1 K189A peptide]
[1]
  fold reduction of binding against wild-type DOCpep1: 9 fold

## LPKRSAPRG [DOCpep1 R192A peptide]
[1]
  fold reduction of binding against wild-type DOCpep1: 11 fold

B2: full-length SPIN•DOC with N-terminal 6xHis tag, co-expressed with Spindlin1 (natural protein, UniProt Q9BUA3 1-381, looked up)
chain: MALKAEGAALDCFEVTLKCEEGEDEEEAMVVAVIPRPEPMLRVTQQEKTPPPRPSPLEAGSDGCEEPKQQVSWEQEFLVGSSPGGSGRALCMVCGAEIRAPSADTARSHILEQHPHTLDLSPSEKSNILEAWSEGVALLQDVRAEQPSPPNSDSGQDAHPDPDANPDAARMPAEIVVLLDSEDNPSLPKRSRPRGLRPLELPAVPATEPGNKKPRGQRWKEPPGEEPVRKKRGRPMTKNLDPDPEPPSPDSPTETFAAPAEVRHFTDGSFPAGFVLQLFSHTQLRGPDSKDSPKDREVAEGGLPRAESPSPAPPPGLRGTLDLQVIRVRMEEPPAVSLLQDWSRHPQGTKRVGAGDTSDWPTVLSESSTTVAGKPEKGNGV
[5]
  stoichiometry N: 2

B3: SPIN•DOC 188-281, DOCpep(1-3) (domain or fragment)
chain: PKRSRPRGLRPLELPAVPATEPGNKKPRGQRWKEPPGEEPVRKKRGRPMTKNLDPDPEPPSPDSPTETFAAPAEVRHFTDGSFPAGFVLQLFSH
[6]
  binding result: binds

## ART[Lys(Me3)]QTAR[Lys(Me2)]STGGKA [histone H3 1-15 K4me3K9me2 peptide]
[7]
  binding result: binds
[8]
  fold decrease of binding affinity in the presence of DOCpep(1-3): ~4.5 fold

## ART[Lys(Me3)]QTAR[Lys(Me)]STGGKA [histone H3 1-15 K4me3K9me1 peptide]
[7]
  binding result: binds
[8]
  fold decrease of binding affinity in the presence of DOCpep(1-3): ~17 fold

## ART[Lys(Me3)]QTAR[Lys(Me3)]STGGKA [histone H3 1-15 K4me3K9me3 peptide]
[7]
  binding result: binds

B4: GFP-SPIN•DOC wild type (natural protein, UniProt Q9BUA3 1-381, looked up)
chain: B2 chain
[9]
  stoichiometry N: 2

B5: Flag-SPIN•DOC wild type (natural protein, UniProt Q9BUA3 1-381, looked up)
chain: B2 chain
[9]
  stoichiometry N: 2
